Measurements reported in the supplement of paper PMC10567573.

B1: ETS1 (parent)
chain: YVRDRADLNKDKPVIPAAALAGYT

Variants of: B1
Experiment: protein stability index of a GFP-peptide fusion (GPS, HEK-293T) (PSI 1-6); higher = more stable
Conditions: c terminus: a fixed tail appended
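Further: lentivirally expressed fusions sorted by FACS into six bins by GFP to DsRed ratio, PSI derived from sequencing read proportions per bin multiplied by bin number.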

Variant	protein stability index
YVRDRADLNKDKPVIPAAPLAGYT [A19P]	2.04
YVRDRADLNKDKPVIPAACLAGYT [A19C]	1.86
YVRDRADLNKDKPVIPAAELAGYT [A19E]	1.91
YVRDRADLNKDKPVIPAAWLAGYT [A19W]	2.98
YVRDRADLNKDKPVIPAAKLAGYT [A19K]	2.9
YVRDRADLNKDKPVIPAAYLAGYT [A19Y]	2.13
YVRDRADLNKDIPVIPAAALAGYT [K12I]	2.19
YVRDRADLNKDGPVIPAAALAGYT [K12G]	2.17
YVRDRADLNKDYPVIPAAALAGYT [K12Y]	1.94
YVRDRADLNKDFPVIPAAALAGYT [K12F]	2.1
YVRDRADLNKDHPVIPAAALAGYT [K12H]	2.29
YVRDRADLNKDPPVIPAAALAGYT [K12P]	1.95
YVRDRADLNKDWPVIPAAALAGYT [K12W]	2.43
YVRDRADLNKDQPVIPAAALAGYT [K12Q]	2.48
YVRDRADLNKDRPVIPAAALAGYT [K12R]	2.08
YVRDRADLNKDNPVIPAAALAGYT [K12N]	2.29
YVRDRADLNKDLPVIPAAALAGYT [K12L]	2.47
YVRDRADLNKDMPVIPAAALAGYT [K12M]	1.9
YVRDRADLNKDSPVIPAAALAGYT [K12S]	2.48
YVRDRADLNKDVPVIPAAALAGYT [K12V]	2.47
YVRDRADLNKDTPVIPAAALAGYT [K12T]	2.02
YVRDRADLNKDKPVIPAAALRGYT [A21R]	2.07
YVRDRADLNKDKPVIPAAALIGYT [A21I]	2.42
YVRDRADLNKDKPVIPAAALGGYT [A21G]	1.63

Variant	protein stability index
YVRDRADLNKDKPVIPAAALMGYT [A21M]	1.45
YVRDRADLNKDKPVIPAAALFGYT [A21F]	3.51
YVRDRADLNKDKPVIPAAALQGYT [A21Q]	1.95
YVRDRADLNKDKPVIPAAALTGYT [A21T]	2.52
YVRDRADLNKDKPVIPAAALPGYT [A21P]	1.65
YVRDRADLNKDKPVIPAAALDGYT [A21D]	2.4
YVRDRADLNKDKPVIPAAALNGYT [A21N]	2.14
YVRDRADLNKDKPVIPAAALSGYT [A21S]	2.53
YVRDRADLNKDKPVIPAAALEGYT [A21E]	2.1
YVRDRADLNKDKPVIPAAALHGYT [A21H]	2.06
YVRDRADLNKDKPVIPAAALKGYT [A21K]	2.08
YVRDRADLNKDKPVIPAAALLGYT [A21L]	3.03
YVRDRADLNKDKPVIPAAALVGYT [A21V]	2.38
YVRDRADLNKDKPVIPAAALWGYT [A21W]	2.75
YVRDRADLNKDKPVIPAAALYGYT [A21Y]	2.74
YVRDRADLNKDKPVIPGAALAGYT [A17G]	3.1
YVRDRADLNKDKPVIPEAALAGYT [A17E]	2.19
YVRDRADLNKDKPVIPIAALAGYT [A17I]	2.52
YVRDRADLNKDKPVIPYAALAGYT [A17Y]	2.86
YVRDRADLNKDKPVIPNAALAGYT [A17N]	1.64
YVRDRADLNKDKPVIPDAALAGYT [A17D]	1.41
YVRDRADLNKDKPVIPVAALAGYT [A17V]	1.63
YVRDRADLNKDKPVIPCAALAGYT [A17C]	2.97
YVRDRADLNKDKPVIPHAALAGYT [A17H]	2.15

Variant	protein stability index
YVRDRADLNKDKPVIPSAALAGYT [A17S]	2.25
YVRDRADLNKDKPVIPFAALAGYT [A17F]	1.76
YVRDRADLNKDKPVIPWAALAGYT [A17W]	3.98
YVRDRADLNKDKPVIPKAALAGYT [A17K]	1.98
YVRDRADLNKDKPVIPLAALAGYT [A17L]	2.04
YVRDRADLNKDKPVIPMAALAGYT [A17M]	1.38
YVRDRADLNKDKPVIPQAALAGYT [A17Q]	1.87
YVRDRADLNKDKPVIPPAALAGYT [A17P]	1.79
YVRDRADLNKDKPVIPTAALAGYT [A17T]	2.11
YVRDRADLNKDKPVKPAAALAGYT [I15K]	2.26
YVRDRADLNKDKPVSPAAALAGYT [I15S]	2.36
YVRDRADLNKDKPVNPAAALAGYT [I15N]	3.26
YVRDRADLNKDKPVDPAAALAGYT [I15D]	1.93
YVRDRADLNKDKPVLPAAALAGYT [I15L]	2.16
YVRDRADLNKDKPVCPAAALAGYT [I15C]	2.84
YVRDRADLNKDKPVVPAAALAGYT [I15V]	1.56
YVRDRADLNKDKPVFPAAALAGYT [I15F]	1.8
YVRDRADLNKDKPVWPAAALAGYT [I15W]	2.77
YVRDRADLNKDKPVQPAAALAGYT [I15Q]	2.57
YVRDRADLNKDKPVGPAAALAGYT [I15G]	2.09
YVRDRADLNKDKPVYPAAALAGYT [I15Y]	1.95
YVRDRADLNKDKPVHPAAALAGYT [I15H]	2.29
YVRDRADLNKDKPVPPAAALAGYT [I15P]	2.63
YVRDRADLNKDKPVRPAAALAGYT [I15R]	1.86

Variant	protein stability index
YVRDRADLNKDKPVEPAAALAGYT [I15E]	1.77
YVRDRADLNKDKPVTPAAALAGYT [I15T]	1.91
YVRDRADLNKDKPVAPAAALAGYT [I15A]	2.8
YVRDRADLNKDKPVMPAAALAGYT [I15M]	2.7
YVRDRADLNKDKPVIPADALAGYT [A18D]	2.21
YVRDRADLNKDKPVIPACALAGYT [A18C]	2.33
YVRDRADLNKDKPVIPAIALAGYT [A18I]	3.08
YVRDRADLNKDKPVIPAYALAGYT [A18Y]	2.19
YVRDRADLNKDKPVIPANALAGYT [A18N]	2.22
YVRDRADLNKDKPVIPAFALAGYT [A18F]	1.83
YVRDRADLNKDKPVIPAVALAGYT [A18V]	1.09
YVRDRADLNKDKPVIPAGALAGYT [A18G]	2.35
YVRDRADLNKDKPVIPATALAGYT [A18T]	1.93
YVRDRADLNKDKPVIPAPALAGYT [A18P]	3.01
YVRDRADLNKDKPVIPARALAGYT [A18R]	1.93
YVRDRADLNKDKPVIPALALAGYT [A18L]	2.88
YVRDRADLNKDKPVIPAQALAGYT [A18Q]	2.84
YVRDRADLNKDKPVIPASALAGYT [A18S]	2.73
YVRDRADLNKDKPVIPAEALAGYT [A18E]	1.88
YVRDRADLNKDKPVIPAWALAGYT [A18W]	2.53
YVRDRADLNKDKPVIPAKALAGYT [A18K]	2.63
YVRDRADLNKDKPVIPAHALAGYT [A18H]	2.18
